T1: IL-16 (Homo sapiens, UniProt Q14005)
T1 construct: Recombinant human IL-16 corresponding to the 121 C-terminal amino biologically active cytokine cleaved from natural pro-IL-16; polyhistidine (pET-30 LIC) (N, cleaved yes); made in house; host or cells: E. coli
T1 sequence (Q14005 1212-1332): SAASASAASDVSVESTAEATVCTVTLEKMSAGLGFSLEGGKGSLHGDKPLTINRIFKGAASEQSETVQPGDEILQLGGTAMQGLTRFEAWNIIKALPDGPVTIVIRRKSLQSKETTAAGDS

T2: natural and recombinant human IL-16 (Homo sapiens, UniProt Q14005)
T2 sequence (Q14005 1212-1332 limits assumed): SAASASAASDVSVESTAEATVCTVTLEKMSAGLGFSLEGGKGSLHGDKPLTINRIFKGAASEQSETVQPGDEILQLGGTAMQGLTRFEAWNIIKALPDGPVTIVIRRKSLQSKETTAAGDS

T3: murine IL-16 (Mus musculus, UniProt O54824)
T3 sequence (O54824 1205-1322 T1262D/E1263R/Q1264T limits assumed): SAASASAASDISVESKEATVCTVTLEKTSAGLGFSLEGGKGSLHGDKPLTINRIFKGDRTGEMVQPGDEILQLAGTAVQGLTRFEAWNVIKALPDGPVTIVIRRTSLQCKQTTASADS


Legend:
IL-16 = target: T1, IL-16; experiment: Modified Boyden chamber chemotaxis assay: inhibition of IL-16-stimulated T lymphocyte motility; type: cell-based; conditions: human T lymphocytes; rIL-16 10^-9, 10^-10 or 10^-11 M; peptide 10 μg/ml; 4 h
Method: (§1) The mononuclear cell layer was washed with medium 199 (M. A. Bioproducts, Walkersville, Md.) supplemented with 0.4% bovine serum albumin, 25 mM HEPES buffer, and 100 U/ml of penicillin and 100 μg/ml streptomycin (M199-HPS). Samples were enriched for T lymphocytes by nylon wool adherence as described (Julius, et al., Eur. J. Immunol. 3:645, 1973). The nonadherent cells were >95% CD3^+ as determined by flow cytometry.
Recombinant human IL-16 corresponding to the 121 C-terminal amino biologically active cytokine cleaved from natural pro-IL-16 was produced in E. coli as a polyhistidine fusion protein using the expression vector pET-30 LIC (Novagen, Madison, Wis.). Following lysis of transformed bacteria, the protein was purified by metal chelation chromatography and the N-terminal polyhistidine tag was removed by cleavage with enterokinase.
A series of oligopeptides derived from the 16 C-terminal of human IL-16 residues were prepared (FIG. 1) and tested for their ability to […] the T lymphocyte motility using a modified Boyden chemotaxis chamber assay.
Human T lymphocytes were loaded in the upper wells, and rIL-16 at concentrations of 10^−9 M, 10^−10 M or 10^−11 M was loaded in the lower wells, in the presence or absence of two 8-mer peptides corresponding to amino acids Arg^106 to Lys^113 (SEQ ID NO:24), and Glu^114 to Ser^121 (SEQ ID NO:46) of IL-16. […] To further define the residues mediating inhibition, the eight residue sequence from Arg^106 to Lys^113 was divided into RRKS (SEQ ID NO:2) and LQSK (SEQ ID NO:48).

Leu 3a mAb = experiment: Chemotaxis assay: T cell migration in response to anti-CD4 mAb Leu 3a with peptide; type: cell-based; conditions: Leu 3a 0.5, 1.0, 5.0 μg/ml; peptide 10 μg/ml
Method: (§2) Cells were suspended (5×10^6 cells/ml) in M199-HPS and loaded into the upper wells, separated by an 8 μm pore size nitrocellulose membrane from lower wells. […] After a 4 h incubation at 37° C., the membranes were removed and stained with hematoxylin, dehydrated by sequential washes in ethanol and propanol, then washed in xylene to clarify the filter for cell counting by light microscopy. Cell migration was quantified by counting the number of cells in the filter that had moved beyond a depth of 50 μm in five separate fields in duplicate wells for all conditions. Cell counts were compared with unstimulated control cell migration which was normalized to 100%. Results are expressed as mean % control migration and the data analyzed for statistical significance (P<0.05) by Student=s t test.

[1] = target: HIV-1 gp120 (strain HIV-13B) (Human immunodeficiency virus type 1 group M subtype B, UniProt P04578); conditions: gp120 0.5, 1.0, 5.0 μg/ml; peptide 10 μg/ml
Method: as §2

[2] = target: T2, natural and recombinant human IL-16; conditions: cited from earlier work
murine IL-16 = target: T3, murine IL-16; conditions: cited from earlier work
human T lymphocytes = experiment: Chemotaxis assay: chemoattractant activity of mutated rIL-16; type: cell-based; conditions: 10^-8 to 10^-11 M
Method: as §1
The native IL-16 expression vector (pET-30/L-16^121) was used as a template for PCR mutagenesis to create four recombinant IL-16 (rIL-16) mutant constructs with progressive four amino acid deletions at the C-terminus (C-4 to C-16), as well as deletions of 12 or 22 N-terminal residues. Two double deletion constructs lacking the first 12 or 22 N-terminal residues as well as the last 16 C-terminal residues of IL-16 were also produced. Point mutations in C-terminal residues of rIL-16 were generated by site-directed mutagenesis using the Stratagene Quick Change Kit (Stratagene, La Jolla, Calif.) according to the manufacturer=s specifications. The point mutations included alanine substitution for Arg^106, Arg^107, and Arg^106 plus Arg^107.
IL-16 mutant constructs were created with progressive deletions of 4 C-terminal amino acids from C-4 through C-16 (FIG. 4). The C-12 construct terminates at Ser^108, retaining the RRKS motif. The C-16 construct terminates at Ile^105, deleting RRKS and succeeding downstream residues. These mutant IL-16 molecules were tested in chemotaxis assays.

[3] = tested on: Mixed Lymphocyte Reaction; experiment: Inhibition of the one way mixed lymphocyte reaction (MLR); type: cell-based, human; conditions: for capacity to inhibit the MLR: responder T lymphocytes pre-treated, 10^-8 to 10^-11 M
Method: Stimulator cells for mixed lymphocyte reactions were prepared by incubating PBMC (10^6/ml) with 25 μg/ml mitomycin C for 30 min. The cells were then washed four times with RPMI 1640 medium supplemented with 25 mM HEPES buffer, 100 U/ml penicillin, and 100 μg/ml streptomycin (RPMI 1640-HPS), then resuspended in RPMI 1640-HPS supplemented with 10% fetal bovine serum (complete medium) at 10^6 cells/ml. Responder cells were prepared from an unrelated donor, suspended in complete medium at 10^6 cells/ml, and pre-incubated (1 h, 37° C.) with control buffer, or with rIL-16 or mutated rIL-16 constructs (10^−9 M to 10^−11 M). Stimulator cells were then added (1:1) and the cell mixtures were transferred in quadruplicate to 96-well round-bottom plates. Cell cultures were pulsed with [^3H] thymidine on day 5, harvested with a Titertek cell harvester, and counted in a Becton Dickinson scintillation counter on day 6. Results are expressed as mean % cpm above background. SEM.
To determine whether other biological activities of IL-16 are mediated by the C-terminal domain, the native and mutated rIL-16 constructs were tested for their capacity of inhibiting the one way MLR. Responder T lymphocytes were pre-treated with rIL-16 or control buffer, then cultured with mitomycin C-treated stimulator PBMC from an unrelated donor. Pre-treatment with 10^−8 M native rIL-16 reduced thymidine incorporation on day 6 by nearly 70%, compared with untreated cells.

Molecule | inhibition of IL-16-stimulated T cell migration (IL-16) | chemoattractant activity of mutated rIL-16 (human T lymphocytes) | also measured
ETTAAGDS [SEQ ID NO:46] | only the Arg^106 to Lys^113 peptide (SEQ ID NO:24) inhibited IL-16 | – | –
LQSK | Only RRKS (SEQ ID NO:2) inhibited IL-16 chemoattractant activity | – | –
RRAS | inhibited IL-16 as effectively as the native RRKS | – | –
RRKA | inhibited IL-16 as effectively as the native RRKS | – | –
RRKS | inhibited IL-16 chemoattractant activity | – | blocking of cell migration in response to divalent anti-CD4 mAb Leu 3a (Leu 3a mAb): not blocked; blocking of cell migration in response to HIV-1 gp120 [1]: not blocked
RRKSLQ | inhibited IL-16-stimulated T cell migration | – | –
RRKSLQSK [SEQ ID NO:24] | inhibited IL-16 | – | –
RRKSLQSKETTAAGDS [Arg106 to Ser121, synthetic oligopeptide corresponding to the 16 C-terminal amino acids of human IL-16] | – | – | inhibition of chemoattractant activity of natural and recombinant human IL-16 [2]: inhibit the chemoattractant activity; inhibition of chemoattractant activity of murine IL-16 (murine IL-16): inhibit the chemoattractant activity
RSQRLK [SEQ ID NO:47, reference compound] | no inhibitory activity | – | –
Arg^107 alone: rIL-16 point mutation Arg^107 to alanine (protein) SAASASAASDVSVESTAEATVCTVTLEKMSAGLGFSLEGGKGSLHGDKPLTINRIFKGAASEQSETVQPGDEILQLGGTAMQGLTRFEAWNIIKALPDGPVTIVIRAKSLQSKETTAAGDS | – | completely abrogated chemoattractant activity | –
native rIL-16: Recombinant human IL-16, 121 C-terminal amino acids of pro-IL-16, produced in E. coli (protein) SAASASAASDVSVESTAEATVCTVTLEKMSAGLGFSLEGGKGSLHGDKPLTINRIFKGAASEQSETVQPGDEILQLGGTAMQGLTRFEAWNIIKALPDGPVTIVIRRKSLQSKETTAAGDS | – | – | reduction of thymidine incorporation in MLR compared with untreated cells ([3]; pre-treatment with 10^-8 M, day 6): ~70%
Arg^106 alone: rIL-16 point mutation Arg^106 to alanine (protein) SAASASAASDVSVESTAEATVCTVTLEKMSAGLGFSLEGGKGSLHGDKPLTINRIFKGAASEQSETVQPGDEILQLGGTAMQGLTRFEAWNIIKALPDGPVTIVIARKSLQSKETTAAGDS | – | retained full activity | –
Arg^106 plus Arg^107: rIL-16 point mutation Arg^106 plus Arg^107 to alanine (protein) SAASASAASDVSVESTAEATVCTVTLEKMSAGLGFSLEGGKGSLHGDKPLTINRIFKGAASEQSETVQPGDEILQLGGTAMQGLTRFEAWNIIKALPDGPVTIVIAAKSLQSKETTAAGDS | – | completely abrogated chemoattractant activity | –
C-12: rIL-16 mutant with deletion of 12 C-terminal residues, retaining the RRKS motif (protein) SAASASAASDVSVESTAEATVCTVTLEKMSAGLGFSLEGGKGSLHGDKPLTINRIFKGAASEQSETVQPGDEILQLGGTAMQGLTRFEAWNIIKALPDGPVTIVIRRKS | – | active as native rIL-16 | –
C-16: rIL-16 mutant terminating at Ile^105, deleting RRKS and succeeding downstream residues (protein) SAASASAASDVSVESTAEATVCTVTLEKMSAGLGFSLEGGKGSLHGDKPLTINRIFKGAASEQSETVQPGDEILQLGGTAMQGLTRFEAWNIIKALPDGPVTIVI | – | completely eliminated the chemoattractant activity | shift of the dose response of MLR inhibition versus native rIL-16 [3]: ~1 log; capacity to inhibit the MLR [3]: nearly as active as native rIL-16
N-12: rIL-16 construct with deletion of 12 N-terminal amino acids (protein) VESTAEATVCTVTLEKMSAGLGFSLEGGKGSLHGDKPLTINRIFKGAASEQSETVQPGDEILQLGGTAMQGLTRFEAWNIIKALPDGPVTIVIRRKSLQSKETTAAGDS | – | comparable to native IL-16 | capacity to inhibit the MLR [3]: reduced but not eliminated
N-22: rIL-16 construct with deletion of 22 N-terminal amino acids (protein) TVTLEKMSAGLGFSLEGGKGSLHGDKPLTINRIFKGAASEQSETVQPGDEILQLGGTAMQGLTRFEAWNIIKALPDGPVTIVIRRKSLQSKETTAAGDS | – | comparable to native IL-16 | capacity to inhibit the MLR [3]: reduced but not eliminated

— patent US7608691B2, “Antibodies against IL-16 antagonist peptides” (Trustees of Boston University, priority 1999, dated 2009)
